These results are taken from patent publication US20240417462A1 (SHANGHAI CELGEN BIO PHARMACEUTICAL, published 2024).

Substitutions are numbered along the chain they refer to. “And” between values parts separate entries of the source, which are not always exact repeats. Identical values can stand only once. Like-named read-outs stand apart in the source and are kept apart here.

Test [1] concerns the target T1, recombinant human TIGIT (Human TIGIT His, Sino Biological, 10917-H08H) (human, UniProt Q495A1 22-138).
T1 construct: range 1-138; bought; also called hTIGIT
T1 sequence (looked up): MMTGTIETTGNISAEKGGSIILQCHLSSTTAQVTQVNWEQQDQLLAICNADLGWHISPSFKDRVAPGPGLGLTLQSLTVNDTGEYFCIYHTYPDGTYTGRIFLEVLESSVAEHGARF
As to the kind of experiment: ELISA, coated human TIGIT-His.

The target of test [2] is T2, recombinant cynomolgus monkey TIGIT (cynomolgus monkey, UniProt A0A7N9I9V4 89-209).
T2 construct: construct not described; also called cynomolgus TIGIT
As to the kind of experiment: ELISA, recombinant cynomolgus TIGIT coated, anti-mouse Fab secondary antibody, TMB, OD450/655nm. The protocol:
(§1) The cynomolgus monkey or mouse TIGIT antigen of was coated with the same method as above, the anti-human TIGIT mouse monoclonal antibody was diluted in gradient, and then the anti-mouse Fab secondary antibody was added (Jackson Immuno Research, 515-035-072) for TMB development. ELISA was used to detect the binding of 8 mouse monoclonal antibodies to recombinant cynomolgus monkey TIGIT.

Another test has as its target T3, mouse TIGIT antigen (mouse, UniProt P86176 29-148, limits assumed).
T3 construct: construct not described; also called murine TIGIT
T3 sequence (looked up): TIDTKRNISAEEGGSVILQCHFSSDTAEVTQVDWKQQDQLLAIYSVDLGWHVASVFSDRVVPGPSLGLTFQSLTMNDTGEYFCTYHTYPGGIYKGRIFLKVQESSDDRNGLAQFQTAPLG
Kind of test: ELISA, coated mouse TIGIT. The protocol: as §1

The target of test [3] is T2, recombinant cynomolgus monkey TIGIT. Kind of test: ELISA, coated cynomolgus TIGIT. How it is done: as §1
Test [4] addresses T4, full-length human TIGIT expressed on CHO-K cell membrane (CHO-K-TIGIT) (human, UniProt Q495A1 22-244).
T4 construct: whole, on cells; also called CHO-TIGIT; membrane TIGIT
T4 sequence (looked up): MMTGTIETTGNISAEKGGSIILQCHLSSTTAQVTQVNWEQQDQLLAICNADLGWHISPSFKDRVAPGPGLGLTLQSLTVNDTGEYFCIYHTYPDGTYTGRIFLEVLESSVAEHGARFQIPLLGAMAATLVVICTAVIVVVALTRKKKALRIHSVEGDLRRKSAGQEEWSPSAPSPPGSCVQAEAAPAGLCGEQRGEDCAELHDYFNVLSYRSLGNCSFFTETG
As to the kind of experiment: flow cytometry, CHO-TIGIT cells.

Test [5] addresses T1, recombinant human TIGIT (Human TIGIT …). As to the kind of experiment: competition ELISA, coated TIGIT-His, CD155-Fc as competitor. How it is done: In order to evaluate the competition between the anti-human TIGIT mouse monoclonal antibody and CD155 (Human CD155 (Fc Tag): Sino Biological, 10109-H02H) for binding to recombinant human TIGIT (Human TIGIT(His), Sino Biological, 10917-H08H), ELISA detection was performed, and the specific steps were as follows:
Primary antibody incubation: the plate was washed twice with PBS (250 μl/well), and patched dry. 6 μg/ml of CD155 was respectively diluted in a binding solution and added into a 96-well dilution plate at 60 μl/well. Then the screened hybridoma antibody was diluted with the binding solution, (the highest concentration was 30 μg/ml), and diluted to 3 times of concentration, and added into the corresponding dilution plate above at 60 μl/well. After mixing well, the sample was added to the coated 96-well ELISA plate at 100 μl/well. The plate was sealed with a sealing film and placed at 37° C. for 1.5 hours.
Secondary antibody incubation: the blocking solution was discarded, the plate was washed with 250 μl PBST for 3 times, and patched dry.

Test [6] has the same target. Kind of test: BLI, antibody captured on anti-human Fc probe, TIGIT-His in solution.
For test [7] the target is unchanged. Kind of test: competition ELISA, coated TIGIT-His, CD155-mFC as competitor. How it is done: Antigen TIGIT (Human TIGIT (His), Sino Biological, 10917-H08H) was diluted with pH 9.6 of NaHCO₃ solution into 1 μg/mL, 50 μL per well was added to a 96-well ELISA plate, and placed overnight at 4° C. in a refrigerator. The next day, after washing with PBS twice, plate was blocked with 3% BSA (100 μL per well) by incubating at 37° C. for 1.5 h, and washed 4 times with PBST.

Test [8] has the same target. Kind of test: BLI, antibody captured on anti-human Fc probe, TIGIT-His in solution. The protocol: The dissociation constant (Kd) of the human mouse chimeric TIGIT monoclonal antibody was detected by using a GATORS (ProbeLife) detection instrument and an HFC (LOT #2007065 Tray 2), Human antibody Capture probe. The human mouse chimeric TIGIT monoclonal antibody was diluted to 30 nM in a binding buffer (Q buffer [PBS (10 mM PH7.4)+0.02% Tween 20+0.2% BSA]). The recombinant human TIGIT protein was diluted in Q buffer in a 2-fold gradient to different concentrations varying in the range of 40 nM to 10 nM. A kinetic correlation determination was initiated by placing an antibody capture sensor in the continuously diluted antigen solution described above. Octet Data Acquisition software was opened and New Kinetics Experiment-Basic Kinetics mode was selected.
This is another data set of the same source.

Test [9] has the same target. Kind of test: ELISA, recombinant human TIGIT (His) coated, anti-human-Fc-AP, OD405/490. How it is done: (§2) Antigen hTIGIT (Human TIGIT (His), Sino Biological, 10917-H08H) was diluted into 1 μg/mL with a NaHCO₃ solution of pH 9.6, 50 μl per well was added to a 96-well ELISA plate, and placed overnight in refrigerator at 4° C.
(§3) In order to determine whether the humanized TIGIT monoclonal antibody of the present disclosure could bind to the recombinant human TIGIT protein, in vitro testing was performed. Murine antibodies and Tiragolumab (Tira) were used as positive controls. The experimental method was the same as in Example 3.1.

Test [10] shares this target. Described as above. The protocol: as §2, §3
The source holds these as a separate data set.

Test [11] shares this target. Kind of test: competition ELISA, human TIGIT (His) coated, antibody titrated against fixed CD155, bound CD155 detected, OD450/655.
Test [12] shares this target. As to the kind of experiment: BLI, antibody captured on anti-human Fc probe, TIGIT-His in solution. This is another data set of the same source.

T2 sequence (A0A7N9I9V4 entry or part of it): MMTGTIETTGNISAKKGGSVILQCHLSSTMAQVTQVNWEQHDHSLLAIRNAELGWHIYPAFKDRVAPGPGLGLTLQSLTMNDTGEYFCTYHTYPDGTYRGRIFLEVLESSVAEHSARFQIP

B1: anti-human TIGIT mouse monoclonal antibody 7103-01 (antibody, V domains shown)
VH: QVQLQQPGAELVKPGASVKLSCKASGYTFISYNIYWVKQRPGQGLEWIGGVNPSNGNTNFNENFKSKATLTVDKSSSTAYMQLSSLTSDDSAVYFCTRGNYYGYEFAYWGQGTLVTVSA
VL: DIVMTQSHKFMSTSVGDRVSITCKASQHVSTAVAWYQQKPGQSPKLLIYSPSYRYTGVPDRFTGSGSGTDFTFTISSVQAEDLAVYYCQQHYSTPWTFGGGTKLEIK
notes: also called 31E10-2-1
As to B1, the EC50 in [1] stood at 0.0647 nM; in test [2], 0.16 µg/mL; in test [3], 1.07 nM; in [4], 0.499 nM. Besides, in the test with mouse TIGIT antigen, the binding result is “no binding”. In test [5], the IC50 is 0.178 nM.

B2: anti-human TIGIT mouse monoclonal antibody 7103-03 (antibody, V domains shown)
VH: EVQLQQSGPELVKPGASVKISCKTSGYTFTEYTMHWVKQSHGKSLEWIGGINPNNGGTSYNQKFKGKATLTVDKSSSTAYMELRSLTSEDSAVYYCARGAYYRYDFDYWGQGTTLTVSS
VL: B1 VL with H28D, S30R, A34V, P51A
notes: also called 36H8-2-2
On to B2, for which the EC50 was determined as 0.0674 nM in test [1], 0.06 µg/mL in test [2], 0.398 nM in test [3] and 0.347 nM in [4]. The binding result with mouse TIGIT antigen is “no binding”. In [5], the concentration for half-maximal inhibition (IC50) came to 0.141 nM.

B3: anti-human TIGIT mouse monoclonal antibody 7103-04 (antibody, V domains shown)
VH: VQLQESGAELVKPGASVKLSCRASGYTFTDYFVYWVKQRPGQGLEWIGGINPSNGGATFNEKFKNKATLTVDTSSSTAYMQLSSLTSEDSAIYYCTRGNFYGYEFAYWGQGTLVTVSA
VL: B1 VL with M11I, A34V, S93I
notes: also called 40E6-2-2
B3: the EC50 in test [1] turned out to be 0.0727 nM; in test [2], 0.05 µg/mL; in test [3] it was 0.334 nM; in test [4], 0.44 nM. Also, the binding result with mouse TIGIT antigen is listed as “no binding”. For the same molecule, the IC50 in test [5] came to 0.183 nM.

B4: anti-human TIGIT human mouse chimeric monoclonal antibody 7103-01 (hFc) (antibody, V domains shown)
VH: B1 VH
VL: B1 VL
notes: also called 7301-01 (hFc)
As for B4, the EC50 in [1] is 0.499 nM. For the same molecule, in test [6], the Kd turned out to be 1.73 nM, the koff worked out at 0.000951 s⁻¹ and the kon is 549000 M⁻¹ s⁻¹. Further, in test [7], the IC50 stood at 4.03 nM. Also, it took 1.08 nM to reach a half-maximal effect in test [4] (EC50). Further, in test [8], the Kd was 0.574 nM, the koff worked out at 0.000405 s⁻¹ and the kon was 706000 M⁻¹ s⁻¹.

B5: Tiragolumab (antibody, V domains shown)
VH: EVQLQQSGPGLVKPSQTLSLTCAISGDSVSSNSAAWNWIRQSPSRGLEWLGKTYYRFKWYSDYAVSVKGRITINPDTSKNQFSLQLNSVTPEDTAVFYCTRESTTYDLLAGPFDYWGQGTLVTVSS
VL: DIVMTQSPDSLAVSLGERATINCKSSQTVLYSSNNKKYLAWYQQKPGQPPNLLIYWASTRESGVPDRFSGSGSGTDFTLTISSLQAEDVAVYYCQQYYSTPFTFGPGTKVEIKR
As for B5, the EC50 in test [9] was 0.0806 µg/mL; in test [10], 0.0242 µg/mL; in test [4], 1.36 nM and 3.84 nM and 1.72 nM. For the same molecule, the IC50 in test [7] turned out to be 5.24 nM; in test [11], 0.116 µg/mL.

B6: anti-human TIGIT mouse monoclonal antibody 7103-06 (antibody, V domains shown)
VH: EEQLVESGGGLVKPGGTLKLSCAASGFTFSTYAMSWVRQSPEKRLEWVAEISSGGSYTYYSDTVTGRFTISRDNAKNTLYLEMSSLRSEDTAMYYCARKTLDYYALDYWGHGTSVTVSS
VL: DVQITQSPSYLAASPGETITINCRANKTISKYLAWYQEKPGKTNKLLIYSGSRLQSGIPSKFSGSGYGTDFTLTISSLEPEDFAMYYCQQHNEYPWTFGGGTKLEIK
notes: often printed as 7105-06; also called 7105-06; 47A2-1-2
As for B6, the EC50 turned out to be 0.0393 nM in test [1], 0.026 µg/mL in test [2], 0.174 nM in [3] and 0.256 nM in [4]. In addition, in the test with mouse TIGIT antigen, the binding result is on record as “no binding”. For the same molecule, the half-inhibitory concentration (IC50) in test [5] amounted to 0.0607 nM.

B7: anti-human TIGIT mouse monoclonal antibody 7103-07 (antibody, V domains shown)
VH: B6 VH with E2V, L4V, K43Q, Y57H, Y59F, K76Q, S84N, H111Q
VL: B6 VL with N26S, T28S, L104V
notes: also called 42C12-1-2
In the case of B7, the EC50 in test [1] came out at 0.075 nM; in test [2], 0.106 µg/mL; in test [3], 0.704 nM; in test [4], 0.226 nM. For the same molecule, the binding result in the test with mouse TIGIT antigen is given as “no binding”. Also, the IC50 in test [5] was determined as 0.159 nM.

B8: anti-human TIGIT human mouse chimeric monoclonal antibody 7103-07 (hFc) (antibody, V domains shown)
VH: B6 VH with E2V, L4V, K43Q, Y57H, Y59F, K76Q, S84N, H111Q
VL: B6 VL with N26S, T28S, L104V
notes: also called 7303-07 (hFc); human mouse chimeric antibody
Take B8: the Kd was found to be 2.96 nM in [12] and 1.72 nM in [8]. The koff in test [12] is 0.00169 s⁻¹; in test [8], 0.00167 s⁻¹. The kon came out at 573000 M⁻¹ s⁻¹ in test [12] and 971000 M⁻¹ s⁻¹ in test [8]. Moreover, the EC50 in test [10] is 0.0095 µg/mL; in test [4], 1.35 nM and 0.927 nM. The IC50 was 1.7 nM in [7] and 0.041 µg/mL in test [11].
